Drawing on publication PMC10616211, this text covers KD in the presence of 1 µM DID and Kd for one substance.

The target of experiment [1] is cytosolic fragment of MFN2 (modified, truncated human MFN2, residues 1–19 and 401–705 deleted) (human) (UniProt O95140). Nature of the experiment: ELISA; as the pH 6.2 plate assay, with purified DID as competitor (1 µM in the results; wells treated with 2 µM DID in the methods). A general note: An ELISA detects its analyte on a solid surface through an enzyme-linked reagent.

For experiment [2] the target is unchanged. The experiment can be described thus: ELISA; MFN2 coated on plates (0.1 µM); HEK293T lysate with DIAPH1-eCFP added in TBS pH 6.2, overnight 4 °C; anti-GFP-HRP; one site total and nonspecific binding fit.
Experiment [3] shares this target. The experiment can be described thus: ELISA; MFN2 coated on plates (0.1 µM); HEK293T lysate with DIAPH1-eCFP added in TBS pH 7.2, overnight 4 °C; anti-GFP-HRP; one site total and nonspecific binding fit.

Sequence of DIAPH1-eCFP (O60610 whole entry): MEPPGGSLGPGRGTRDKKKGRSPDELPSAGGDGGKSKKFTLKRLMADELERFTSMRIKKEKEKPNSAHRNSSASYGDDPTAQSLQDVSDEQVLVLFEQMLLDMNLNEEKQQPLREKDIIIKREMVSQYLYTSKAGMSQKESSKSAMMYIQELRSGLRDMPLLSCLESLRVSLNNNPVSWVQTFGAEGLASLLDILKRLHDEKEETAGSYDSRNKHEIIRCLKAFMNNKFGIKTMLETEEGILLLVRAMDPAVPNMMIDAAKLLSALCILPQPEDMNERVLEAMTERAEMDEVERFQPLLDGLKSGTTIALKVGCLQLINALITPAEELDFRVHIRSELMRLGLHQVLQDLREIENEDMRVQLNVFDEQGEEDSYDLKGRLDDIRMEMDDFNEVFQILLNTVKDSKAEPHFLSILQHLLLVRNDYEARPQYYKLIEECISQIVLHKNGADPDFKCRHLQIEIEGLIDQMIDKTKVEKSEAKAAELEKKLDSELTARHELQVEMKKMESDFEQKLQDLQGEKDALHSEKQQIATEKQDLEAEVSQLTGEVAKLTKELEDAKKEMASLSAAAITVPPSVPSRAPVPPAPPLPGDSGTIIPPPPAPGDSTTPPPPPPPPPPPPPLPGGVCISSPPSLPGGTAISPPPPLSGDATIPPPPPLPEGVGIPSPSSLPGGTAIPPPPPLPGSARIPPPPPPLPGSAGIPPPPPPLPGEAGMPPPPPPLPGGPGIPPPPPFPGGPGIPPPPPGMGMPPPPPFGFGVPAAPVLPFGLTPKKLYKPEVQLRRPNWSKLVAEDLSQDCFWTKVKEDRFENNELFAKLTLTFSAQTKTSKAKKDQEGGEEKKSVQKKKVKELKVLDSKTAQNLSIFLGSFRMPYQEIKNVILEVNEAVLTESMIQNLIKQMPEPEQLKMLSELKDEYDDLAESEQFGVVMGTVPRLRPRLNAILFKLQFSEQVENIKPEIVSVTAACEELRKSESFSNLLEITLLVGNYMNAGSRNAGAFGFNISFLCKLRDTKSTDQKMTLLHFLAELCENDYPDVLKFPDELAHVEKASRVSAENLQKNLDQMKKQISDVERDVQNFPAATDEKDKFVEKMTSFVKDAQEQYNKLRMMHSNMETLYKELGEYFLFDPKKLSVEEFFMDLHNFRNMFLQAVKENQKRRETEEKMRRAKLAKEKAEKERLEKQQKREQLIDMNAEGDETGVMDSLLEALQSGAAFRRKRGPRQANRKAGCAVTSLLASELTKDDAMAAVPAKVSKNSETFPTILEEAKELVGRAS

Turning to “DIAPH1-eCFP (from UniProt O60610 1-1272) (natural protein)”, in experiment [1], the KD in the presence of 1 µM DID worked out at 0.22 nM. The dissociation constant (Kd) was 0.01 nM in experiment [2] and 0.7 nM in experiment [3].

For orientation: Kd means the free concentration of one partner at which half of the binding sites on the other are occupied at equilibrium, for simple one-to-one binding. Lower therefore signals a tighter complex.
